B1: 8 bp dsRNA (dsRNA)
RNA 1: CGCAUGCG
RNA 2: CGCAUGCG

Key:
[1] = biological target: maltose binding protein (MBP)-batVP35 (Myotis lucifigus); experiment: SEC-MALS
[2] = biological target: eVP35 IID (MBP-eVP35 215-240 as printed) (Ebola virus, UniProt Q05127 215-340); experiment: filter binding

Row | Molecule | stoichiometry N [1] | binding signal [2]
1 | maltose binding protein (MBP)-batVP35 (natural protein) | 4 | –
2 | B1 | – | 1 fraction relative to eVP35
